Data reported in article PMC10786891, “Massively parallel profiling of RNA-targeting CRISPR-Cas13d”.
Residue numbers refer to the chain shown, from its start. Names and notes keep the numbering of the source.

T1: EsCas13d, nuclease-dead (Eubacterium siraeum, UniProt B0MS50, R295A;H300A;R849A;H854A)
T1 sequence: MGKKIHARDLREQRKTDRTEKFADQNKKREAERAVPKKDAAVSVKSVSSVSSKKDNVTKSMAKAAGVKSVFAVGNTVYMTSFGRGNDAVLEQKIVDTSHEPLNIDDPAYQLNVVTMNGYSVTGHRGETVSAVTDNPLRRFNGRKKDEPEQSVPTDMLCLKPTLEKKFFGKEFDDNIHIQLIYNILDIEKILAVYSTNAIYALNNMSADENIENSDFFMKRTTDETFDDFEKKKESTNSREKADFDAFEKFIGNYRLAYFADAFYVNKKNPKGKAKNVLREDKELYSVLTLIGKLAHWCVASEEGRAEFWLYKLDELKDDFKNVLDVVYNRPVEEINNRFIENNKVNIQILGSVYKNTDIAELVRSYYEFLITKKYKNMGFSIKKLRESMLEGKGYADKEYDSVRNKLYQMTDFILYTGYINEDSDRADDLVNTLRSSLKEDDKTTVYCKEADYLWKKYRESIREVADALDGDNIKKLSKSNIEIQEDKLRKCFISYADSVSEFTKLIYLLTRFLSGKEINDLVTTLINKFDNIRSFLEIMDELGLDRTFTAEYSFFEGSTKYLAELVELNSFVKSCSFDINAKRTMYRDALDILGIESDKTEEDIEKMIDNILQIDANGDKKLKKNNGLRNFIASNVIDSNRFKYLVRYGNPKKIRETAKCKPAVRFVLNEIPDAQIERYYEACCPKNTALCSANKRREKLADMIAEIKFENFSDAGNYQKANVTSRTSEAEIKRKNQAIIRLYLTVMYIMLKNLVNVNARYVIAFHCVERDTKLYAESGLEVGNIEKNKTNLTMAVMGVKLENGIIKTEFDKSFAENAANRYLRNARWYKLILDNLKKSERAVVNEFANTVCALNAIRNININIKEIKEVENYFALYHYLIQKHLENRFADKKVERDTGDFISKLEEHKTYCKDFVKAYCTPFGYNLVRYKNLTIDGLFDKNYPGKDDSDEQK

B1: target 2 MT 5'PFS GAA 3'PFS ACU (mixed)
RNA 1: CACCCGUGCAAAAUUGCAGGGGUCUAAAACCUUCUCCAAAUUGUUUCAUCCU
RNA 2: GGGAAUGGAUCCACAUCUACGAAUUCGAAAGGAUGAAACAAUUUGGAGAAGACUAGAUCGGAAGAGCACACGU
B2: target 2 MT 5'PFS AGG 3'PFS CAA (mixed)
RNA 1: B1 RNA 1
RNA 2: B1 RNA 2 with G27A, A28G, A29G, A52C, C53A, U54A
B3: target 2 MT 5'PFS UAU 3'PFS UAC (mixed)
RNA 1: B1 RNA 1
RNA 2: B1 RNA 2 with G27U, A29U, A52U, C53A, U54C
B4: target 2 MT 5'PFS GGG 3'PFS UGU (mixed)
RNA 1: B1 RNA 1
RNA 2: B1 RNA 2 with A28G, A29G, A52U, C53G
B5: target 2 MT 5'PFS UGC 3'PFS CAA (mixed)
RNA 1: B1 RNA 1
RNA 2: B1 RNA 2 with G27U, A28G, A29C, A52C, C53A, U54A
B6: target 2 MT 5'PFS UAC 3'PFS UCC (mixed)
RNA 1: B1 RNA 1
RNA 2: B1 RNA 2 with G27U, A29C, A52U, U54C
B7: target 2 MT 5'PFS CGC 3'PFS UAG (mixed)
RNA 1: B1 RNA 1
RNA 2: B1 RNA 2 with G27C, A28G, A29C, A52U, C53A, U54G
B8: target 2 MT 5'PFS UGG 3'PFS CUA (mixed)
RNA 1: B1 RNA 1
RNA 2: B1 RNA 2 with G27U, A28G, A29G, A52C, C53U, U54A
B9: target 2 MT 5'PFS UUA 3'PFS ACG (mixed)
RNA 1: B1 RNA 1
RNA 2: B1 RNA 2 with G27U, A28U, U54G
B10: target 2 MT 5'PFS UAU 3'PFS UAA (mixed)
RNA 1: B1 RNA 1
RNA 2: B1 RNA 2 with G27U, A29U, A52U, C53A, U54A
B11: target 2 MT 5'PFS UGC 3'PFS UAA (mixed)
RNA 1: B1 RNA 1
RNA 2: B1 RNA 2 with G27U, A28G, A29C, A52U, C53A, U54A
B12: target 2 MT 5'PFS UGC 3'PFS CAG (mixed)
RNA 1: B1 RNA 1
RNA 2: B1 RNA 2 with G27U, A28G, A29C, A52C, C53A, U54G
B13: target 2 MT 5'PFS GAG 3'PFS CAC (mixed)
RNA 1: B1 RNA 1
RNA 2: B1 RNA 2 with A29G, A52C, C53A, U54C
B14: target 2 MT 5'PFS UGG 3'PFS CUU (mixed)
RNA 1: B1 RNA 1
RNA 2: B1 RNA 2 with G27U, A28G, A29G, A52C, C53U
B15: target 2 MT 5'PFS UUA 3'PFS ACC (mixed)
RNA 1: B1 RNA 1
RNA 2: B1 RNA 2 with G27U, A28U, U54C
B16: target 2 MT 5'PFS CAC 3'PFS UUG (mixed)
RNA 1: B1 RNA 1
RNA 2: B1 RNA 2 with G27C, A29C, A52U, C53U, U54G
B17: target 2 MT 5'PFS UGA 3'PFS CGC (mixed)
RNA 1: B1 RNA 1
RNA 2: B1 RNA 2 with G27U, A28G, A52C, C53G, U54C
B18: target 2 MT 5'PFS UGA 3'PFS CGA (mixed)
RNA 1: B1 RNA 1
RNA 2: B1 RNA 2 with G27U, A28G, A52C, C53G, U54A
B19: target 2 MT 5'PFS GAG 3'PFS CAG (mixed)
RNA 1: B1 RNA 1
RNA 2: B1 RNA 2 with A29G, A52C, C53A, U54G
B20: target 2 MT 5'PFS GGG 3'PFS UGC (mixed)
RNA 1: B1 RNA 1
RNA 2: B1 RNA 2 with A28G, A29G, A52U, C53G, U54C
B21: target 2 MT 5'PFS CAC 3'PFS UUA (mixed)
RNA 1: B1 RNA 1
RNA 2: B1 RNA 2 with G27C, A29C, A52U, C53U, U54A
B22: target 2 MT 5'PFS AAA 3'PFS CUG (mixed)
RNA 1: B1 RNA 1
RNA 2: B1 RNA 2 with G27A, A52C, C53U, U54G
B23: target 2 MT 5'PFS UUA 3'PFS ACU (mixed)
RNA 1: B1 RNA 1
RNA 2: B1 RNA 2 with G27U, A28U
B24: target 2 MT 5'PFS UAC 3'PFS UCA (mixed)
RNA 1: B1 RNA 1
RNA 2: B1 RNA 2 with G27U, A29C, A52U, U54A
B25: target 2 MT 5'PFS GUA 3'PFS CAA (mixed)
RNA 1: B1 RNA 1
RNA 2: B1 RNA 2 with A28U, A52C, C53A, U54A
B26: target 2 MT 5'PFS GAG 3'PFS CAA (mixed)
RNA 1: B1 RNA 1
RNA 2: B1 RNA 2 with A29G, A52C, C53A, U54A
B27: target 2 MT 5'PFS GAG 3'PFS AGG (mixed)
RNA 1: B1 RNA 1
RNA 2: B1 RNA 2 with A29G, C53G, U54G
B28: target 2 MT 5'PFS UGC 3'PFS UAC (mixed)
RNA 1: B1 RNA 1
RNA 2: B1 RNA 2 with G27U, A28G, A29C, A52U, C53A, U54C
B29: target 2 MT 5'PFS CGC 3'PFS UGU (mixed)
RNA 1: B1 RNA 1
RNA 2: B1 RNA 2 with G27C, A28G, A29C, A52U, C53G
B30: target 2 MT 5'PFS CAC 3'PFS UUC (mixed)
RNA 1: B1 RNA 1
RNA 2: B1 RNA 2 with G27C, A29C, A52U, C53U, U54C
B31: target 2 MT 5'PFS UGC 3'PFS UAU (mixed)
RNA 1: B1 RNA 1
RNA 2: B1 RNA 2 with G27U, A28G, A29C, A52U, C53A
B32: target 2 MT 5'PFS UGC 3'PFS CAU (mixed)
RNA 1: B1 RNA 1
RNA 2: B1 RNA 2 with G27U, A28G, A29C, A52C, C53A
B33: target 2 MT 5'PFS UUA 3'PFS ACA (mixed)
RNA 1: B1 RNA 1
RNA 2: B1 RNA 2 with G27U, A28U, U54A
B34: target 2 MT 5'PFS GAU 3'PFS CCG (mixed)
RNA 1: B1 RNA 1
RNA 2: B1 RNA 2 with A29U, A52C, U54G
B35: target 2 MT 5'PFS GUA 3'PFS CAC (mixed)
RNA 1: B1 RNA 1
RNA 2: B1 RNA 2 with A28U, A52C, C53A, U54C
B36: target 1 insG 3' of 18,insA 3' of 5 (mixed)
RNA 1: CACCCGUGCAAAAAUGCAGGGGUCUAAAACUGAGCGGAUAACCUCUCUAUGG
RNA 2: GGGAAUGGAUCCACAUCUACGAAUUCGUACCAUAGGAGAGGUUAUCCGACUCACCGAGAUCGGAAGAGCACACGU
B37: target 1 C6U,C21A (mixed)
RNA 1: B36 RNA 1
RNA 2: GGGAAUGGAUCCACAUCUACGAAUUCGUACAAUAGAGAGGUUAUCUGCUCACCGAGAUCGGAAGAGCACACGU
B38: target 1 insC 3' of 12,insA 3' of 10 (mixed)
RNA 1: B36 RNA 1
RNA 2: B36 RNA 2 with G36A, A37G, G38A, A39G, G41C, U45A, C46U, G48C, A49G

molecular target: T1, EsCas13d, nuclease-dead; assay: crRNA (strand 1, pre-loaded); Mg2+; 40 mM Tris-HCl pH 7.5, 150 mM NaCl, 6 mM MgCl2, 1 mM DTT, 0.1% Tween-20, 0.2 mg/ml BSA; 25 C; 10 min per concentration, then washed; conditions: tags: His6-TwinStrep-SUMO cleaved; N-terminal SNAP kept (SNAP-Surface 488); label: 3' end held by stalled T7 RNA polymerase

Compared with B1, B2 is 3.2-fold lower in Kd: 13.3 ± 2.6 nM for the first, 4.1 ± 0.7 nM for the second.

Going from B3 to B4, the Kd falls from 26 ± 6 nM to 12.2 ± 0.8 nM (2.1-fold).

B5 and B6 are within error of each other in Kd: 13 ± 2.3 nM for the first, 15.1 ± 2.8 nM for the second.

First: B7
Second: B8
The Kd of the first is 2.1-fold lower: 3.3 ± 0.5 nM for the first, 7 ± 1.3 nM for the second.

Going from B9 to B10, the Kd falls from 81 ± 19 nM to 18.1 ± 3 nM (4.5-fold).

B11 and B12 are within error of each other in Kd: 17 ± 6 nM for the first, 16.2 ± 2.2 nM for the second.

B13 and B14 are within 1.5-fold of each other in Kd: 5.1 ± 0.5 nM for the first, 7 ± 0.7 nM for the second.

First: B15
Second: B16
The Kd of the first is 16-fold higher: 45 ± 14 nM for the first, 2.8 ± 0.5 nM for the second.

B17 and B18 are within error of each other in Kd: 8.5 ± 1.1 nM for the first, 7.2 ± 0.8 nM for the second.

First: B19
Second: B20
The Kd of the first is 2.4-fold lower: 5.31 ± 0.29 nM for the first, 12.8 ± 1.4 nM for the second.

B21 and B22 are within error of each other in Kd: 4.4 ± 0.8 nM for the first, 5.5 ± 1.1 nM for the second.

First: B23
Second: B24
The Kd of the first is 5.1-fold higher: 32 ± 4 nM for the first, 6.3 ± 1 nM for the second. The second binds more tightly here.

B25 and B26 are within error of each other in Kd: 4.8 ± 0.5 nM for the first, 4.9 ± 0.7 nM for the second.

Compared with B27, B28 is 3.8-fold higher in Kd: 5.5 ± 0.4 nM for the first, 21 ± 4 nM for the second.

B29 and B30 are within error of each other in Kd: 5.6 ± 0.5 nM for the first, 5.2 ± 1.2 nM for the second.

First: B31
Second: B32
The Kd of the first is 1.7-fold lower: 14.3 ± 2.6 nM for the first, 25 ± 8 nM for the second. The first binds more tightly here.

Going from B33 to B34, the Kd falls from 37 ± 7 nM to 14.2 ± 1.4 nM (2.6-fold). The second binds more tightly here.

First: B35
Second: B36
The Kd of the first is 3.8-fold lower: 9.6 ± 1.2 nM for the first, 36 ± 4 nM for the second. The first binds more tightly here.

Compared with B37, B38 is 2.2-fold lower in Kd: 26.2 ± 1.6 nM for the first, 11.7 ± 1 nM for the second. The second binds more tightly here.
